Measured values: article PMC5550728, “Retinoschisin Facilitates the Function of L-Type Voltage-Gated Calcium Channels” (Frontiers in Cellular Neuroscience, 2017)

Target: T1, human full-length RS1 fused to the GAL4 DNA binding domain (pBind-RS1) (human, UniProt O15537 1-224)
T1 construct: 224 amino acids), so with its own signal peptide in the construct; source: Cos1 cells, transfected (mammalian two-hybrid fusion)
T1 sequence (looked up): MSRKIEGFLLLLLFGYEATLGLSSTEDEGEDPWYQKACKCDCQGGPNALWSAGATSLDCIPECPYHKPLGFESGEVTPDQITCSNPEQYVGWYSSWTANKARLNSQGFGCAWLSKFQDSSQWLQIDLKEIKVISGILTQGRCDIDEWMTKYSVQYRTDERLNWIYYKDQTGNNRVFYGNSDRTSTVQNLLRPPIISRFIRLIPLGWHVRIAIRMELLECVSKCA
Assay: two-hybrid; mammalian two-hybrid (luciferase reporter) in Cos1 cells: pBind-RS1 (GAL4 DNA binding domain, bait), pACT-Cav1.4-N terminal (VP16 activation domain), pG5Luc, 100 ng each; controls with empty pBind or pACT; n = 6
Conditions: partners not purified

- relative luciferase activity, fold over the controls: ≥ 4 fold
B1: human Cav1.4 N-terminal fragment fused to the VP16 activation domain (pACT-Cav1.4-N terminal) (domain or fragment)
chain: not shown
notes: the methods give 1-1481 bp from ATG, which is about 493 codons; the exact C-terminal limit follows from the reverse primer; also called hCav1.4-N; source: Cos1 cells, transfected (mammalian two-hybrid fusion)
